Experimental findings from publication PMC11344481 (Journal of proteome research, 2024) are described below.

The target of data set [1] is malate dehydrogenase (human (endogenous in heart tissue)) (UniProt P40925). The experiment in a line: native MS.
The data set “native MS” deals with the molecule itself. The experiment in a line: native MS.

A word on the stoichiometry N: it is the number of molecules, sites or subunits per partner or assembly.

In turn, “malate dehydrogenase (from UniProt P40925 1-334) (enzyme)” gave a stoichiometry N in data set [1] of 2.

B1: S100-A1 (natural protein, human (endogenous in heart tissue), UniProt P23297 2-94, looked up)
chain: GSELETAMETLINVFHAHSGKEGDKYKLSKKELKELLQTELSGFLDAQKDVDAVDKVMKELDENGDGEVDFQEYVVLVAALTVACNNFFWENS
modifications: N-terminal methionine removed and N-terminus acetylated (primary proteoform)
As for B1, the “stoichiometry N” value in “native MS” was 2.
